For assay [1], the target named is T1, recombinant human vascular endothelial growth factor (hVEGF) 121 (human, UniProt P15692 27-147).
T1 construct: mature; also called human VEGF-A121; hVEGF 121 isoform
T1 sequence (looked up): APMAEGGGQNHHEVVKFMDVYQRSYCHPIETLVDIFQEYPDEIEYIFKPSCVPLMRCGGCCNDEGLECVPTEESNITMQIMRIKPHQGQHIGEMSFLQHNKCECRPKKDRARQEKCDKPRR
Description: competitive ELISA, 100 pM Fab with serial dilutions of hVEGF-121, free Fab caught on hVEGF-121 plate; Kd estimated from IC50.

For assay [2], the target named is T2, recombinant human VEGF 165 isoform (human, UniProt P15692 27-191).
T2 construct: mature
Kind of assay: competitive ELISA in solution, 10 pM hVEGF-165, free VEGF read with Quantikine kit. The source says: (§1) Kd calculated from the data fitted with a 5 parameter asymmetric model with Prism software.
Target sequence in this assay (P15692 other isoform, or with tags, fused parts or gaps): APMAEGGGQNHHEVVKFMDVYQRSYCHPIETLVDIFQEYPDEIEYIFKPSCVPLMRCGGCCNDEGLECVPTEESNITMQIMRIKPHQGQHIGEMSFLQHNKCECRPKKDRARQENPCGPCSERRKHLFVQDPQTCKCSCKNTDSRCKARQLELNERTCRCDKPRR

The target in assay [3] is T2, recombinant human VEGF 165 isoform. Description: competitive ELISA in solution: 5 pM hVEGF-165 incubated with serial dilutions of the antibody; hVEGF-165 captured and detected with the Quantikine human VEGF ELISA kit.
Assay [4] shares this target. Kind of assay: competitive ELISA in solution: 5 pM hVEGF-165 incubated with serial dilutions of the Fab; hVEGF-165 captured and detected with the Quantikine human VEGF ELISA kit. From the text:
FIG. 11. Competitive Fab-ELISA.
Since library FF01159-1 was designed with a deletion of one residue near the end of CDR-L2 (Kabat), the selected Fabs FF03033-4 and FF03033-8 were mutagenized to reintroduce previously deleted tyrosine residue back at the deleted position.

The target is the same in assay [5]. Kind of assay: cell-based or functional assay.
For assay [6] the target is unchanged. Kind of assay: competitive ELISA in solution: 5 pM hVEGF-165 incubated with serial dilutions of the antibody; hVEGF-165 captured and detected with the Quantikine human VEGF ELISA kit; 5 parameter fit.
For assay [7], the target named is T1, recombinant human vascular endothelial …. Description: SPR, off rate of hVEGF-121 binding.
For assay [8] the target is unchanged. Kind of assay: single point competitive phage-ELISA: residual binding of the Fab-phage to hVEGF after competition with 1 nM hVEGF.
Assay [9] shares this target. Description: competitive Fab-ELISA.
The target in assay [10] is T2, recombinant human VEGF 165 isoform. Kind of assay: competitive ELISA in solution: 10 pM hVEGF-165 incubated with serial dilutions of the Fab; hVEGF-165 captured and detected with the Quantikine human VEGF ELISA kit.
From the text: FIG. 20. Competitive-ELISA. […] Kd was estimated using IC50 calculated from the data fitted with a 5 parameter asymmetric model with Prism software are shown in the table at the bottom of the figure.
as §1

Consider four molecules from patent US20220235123A1 (UNIVERSITY OF TORONTO, published 2022).

Substitutions are numbered along the chain they refer to.

B1: Fab 201 (Variant 201, produced from Clone #201) (Fab, V domains shown)
VH: EVQLVESGGGLVQPGGSLRLSCAASGFDLFHYSIHWVRQAPGKGLEWVAYIYPSYGYTYYADSVKGRFTISADTSKNTAYLQMNSLRAEDTAVYYCARHAWYYGWGLDYWGQGTLVTVSS
VL: DIQMTQSPSSLSASVGDRVTITCRASQAAYGRVAWYQQKPGKAPKLLIYKASELYAGVPSRFSGSRSGTDFTLTISSLQPEDFATYYCQQRGWYLFTFGQGTKVEIKR
notes: also called Fab-F8.y
B1: the Kd is 0.11 nM in [1] and 0.025 nM in assay [2].

B2: Fab FF03046-2 (Fab, V domains shown)
VH: B1 VH
VL: B1 VL
notes: also called FF0346-2
Regarding B2, the “IC50 (read off the curve)” value in [3] and in [4] was about 0.09 nM throughout. Moreover, in assay [5], the “EC50, HUVEC proliferation assay” value stood at 0.2 nM. Further, the Kd in assay [6] worked out at 0.09 nM.

B3: FF0117-A5 (Fab, V domains shown)
VH: B1 VH
VL: DIQMTQSPSSLSASVGDRVTITCRASQSVSSAVAWYQQKPGKAPKLLIYSASSLYSGVPSRFSGSRSGTDFTLTISSLQPEDFATYYCQQRGWYLFTFGQGTKVEIK
notes: Fourth generation Fab; also called FF0117-A5 (2); Fab-A5
Turning to B3, the koff in assay [7] amounted to 0.000255 s⁻¹. Besides, the “Residual binding of competitive phage-ELISA 1nM” value in [8] turned out to be 14%. Also, the Kd in assay [9] came out at 0.08 nM.

B4: Fab variant 216 (Fab 216, derived from Clone #201) (Fab, V domains shown)
VH: B1 VH with F30D
VL: B1 VL
As to B4, the “IC50 (read off the curve)” value in assay [10] is about 0.04 nM. Further, in assay [2], the Kd amounted to 0.035 nM.
